The supplement of paper PMC10567573

B1: MNAT1 (parent)
chain: LAPIHKLEEALYEYQPLQIETYGP

Variants of: B1
Experiment: protein stability index of a GFP-peptide fusion (GPS, HEK-293T) (PSI 1-6); higher = more stable
Conditions: c terminus: a fixed tail appended
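Further: lentivirally expressed fusions sorted by FACS into six bins by GFP to DsRed ratio, PSI derived from sequencing read proportions per bin multiplied by bin number.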

First: LAPIHKLEEILYEYQPLQIETYGP [A10I]
Second: LAPIHKLEEKLYEYQPLQIETYGP [A10K]
The protein stability index of the first is lower: 2.1 for the first, 2.52 for the second.

First: LAPIHKLEELLYEYQPLQIETYGP [A10L]
Second: LAPIHKLEEMLYEYQPLQIETYGP [A10M]
The protein stability index of the first is higher: 1.69 for the first, 1.45 for the second.

Compared with LAPIHKLEENLYEYQPLQIETYGP [A10N], LAPIHKLEEPLYEYQPLQIETYGP [A10P] is higher in protein stability index: 2.69 for the first, 2.73 for the second.

First: LAPIHKLEEQLYEYQPLQIETYGP [A10Q]
Second: LAPIHKLEERLYEYQPLQIETYGP [A10R]
The protein stability index of the first is higher: 2.42 for the first, 2.05 for the second.

Going from LAPIHKLEESLYEYQPLQIETYGP [A10S] to LAPIHKLEETLYEYQPLQIETYGP [A10T], the protein stability index falls from 2.28 to 1.79.

First: LAPIHKLEEVLYEYQPLQIETYGP [A10V]
Second: LAPIHKLEEWLYEYQPLQIETYGP [A10W]
The protein stability index of the first is higher: 2.71 for the first, 1.8 for the second.

Going from LAPIHKLEEYLYEYQPLQIETYGP [A10Y] to LAPIHKLEEAAYEYQPLQIETYGP [L11A], the protein stability index rises from 2.35 to 3.55.

Going from LAPIHKLEEACYEYQPLQIETYGP [L11C] to LAPIHKLEEADYEYQPLQIETYGP [L11D], the protein stability index rises from 2.69 to 3.71.

Compared with LAPIHKLEEAEYEYQPLQIETYGP [L11E], LAPIHKLEEAFYEYQPLQIETYGP [L11F] is lower in protein stability index: 3.57 for the first, 2.07 for the second.

First: LAPIHKLEEAGYEYQPLQIETYGP [L11G]
Second: LAPIHKLEEAHYEYQPLQIETYGP [L11H]
The protein stability index of the first is higher: 3.48 for the first, 2.54 for the second.

Compared with LAPIHKLEEAIYEYQPLQIETYGP [L11I], LAPIHKLEEAKYEYQPLQIETYGP [L11K] is higher in protein stability index: 2.3 for the first, 3.38 for the second.

First: LAPIHKLEEAMYEYQPLQIETYGP [L11M]
Second: LAPIHKLEEANYEYQPLQIETYGP [L11N]
The protein stability index of the first is lower: 2.34 for the first, 3.41 for the second.

Going from LAPIHKLEEAPYEYQPLQIETYGP [L11P] to LAPIHKLEEAQYEYQPLQIETYGP [L11Q], the protein stability index rises from 3.17 to 3.23.

First: LAPIHKLEEARYEYQPLQIETYGP [L11R]
Second: LAPIHKLEEATYEYQPLQIETYGP [L11T]
The protein stability index of the first is higher: 2.77 for the first, 2.57 for the second.

Compared with LAPIHKLEEAVYEYQPLQIETYGP [L11V], LAPIHKLEEAWYEYQPLQIETYGP [L11W] is lower in protein stability index: 2.9 for the first, 2.14 for the second.

First: LAPIHKLEEAYYEYQPLQIETYGP [L11Y]
Second: LAPIHKLEEALAEYQPLQIETYGP [Y12A]
The protein stability index of the first is higher: 2.42 for the first, 1.27 for the second.

Going from LAPIHKLEEALCEYQPLQIETYGP [Y12C] to LAPIHKLEEALDEYQPLQIETYGP [Y12D], the protein stability index rises from 1.82 to 3.07.

First: LAPIHKLEEALEEYQPLQIETYGP [Y12E]
Second: LAPIHKLEEALFEYQPLQIETYGP [Y12F]
The protein stability index of the first is higher: 2.65 for the first, 1.19 for the second.

Going from LAPIHKLEEALGEYQPLQIETYGP [Y12G] to LAPIHKLEEALHEYQPLQIETYGP [Y12H], the protein stability index falls from 2.64 to 1.54.

First: LAPIHKLEEALIEYQPLQIETYGP [Y12I]
Second: LAPIHKLEEALKEYQPLQIETYGP [Y12K]
The protein stability index of the first is higher: 2.64 for the first, 1.93 for the second.

First: LAPIHKLEEALLEYQPLQIETYGP [Y12L]
Second: LAPIHKLEEALMEYQPLQIETYGP [Y12M]
The protein stability index of the first is lower: 2.21 for the first, 2.25 for the second.

Compared with LAPIHKLEEALNEYQPLQIETYGP [Y12N], LAPIHKLEEALPEYQPLQIETYGP [Y12P] is lower in protein stability index: 3.07 for the first, 2.23 for the second.

Compared with LAPIHKLEEALQEYQPLQIETYGP [Y12Q], LAPIHKLEEALREYQPLQIETYGP [Y12R] is higher in protein stability index: 1.88 for the first, 2.19 for the second.

Compared with LAPIHKLEEALSEYQPLQIETYGP [Y12S], LAPIHKLEEALTEYQPLQIETYGP [Y12T] is higher in protein stability index: 1.87 for the first, 2.24 for the second.

Compared with LAPIHKLEEALVEYQPLQIETYGP [Y12V], LAPIHKLEEALWEYQPLQIETYGP [Y12W] is higher in protein stability index: 2.13 for the first, 2.39 for the second.

First: LAPIHKLEEALYAYQPLQIETYGP [E13A]
Second: LAPIHKLEEALYCYQPLQIETYGP [E13C]
The protein stability index of the first is lower: 1.53 for the first, 1.64 for the second.

First: LAPIHKLEEALYDYQPLQIETYGP [E13D]
Second: LAPIHKLEEALYFYQPLQIETYGP [E13F]
The protein stability index of the first is higher: 2.9 for the first, 2.29 for the second.

First: LAPIHKLEEALYGYQPLQIETYGP [E13G]
Second: LAPIHKLEEALYHYQPLQIETYGP [E13H]
The protein stability index of the first is lower: 2.37 for the first, 2.7 for the second.

Compared with LAPIHKLEEALYIYQPLQIETYGP [E13I], LAPIHKLEEALYKYQPLQIETYGP [E13K] is lower in protein stability index: 2.17 for the first, 1.83 for the second.

Compared with LAPIHKLEEALYLYQPLQIETYGP [E13L], LAPIHKLEEALYMYQPLQIETYGP [E13M] is higher in protein stability index: 2.22 for the first, 2.49 for the second.

First: LAPIHKLEEALYNYQPLQIETYGP [E13N]
Second: LAPIHKLEEALYPYQPLQIETYGP [E13P]
The protein stability index of the first is lower: 1.61 for the first, 1.68 for the second.

Compared with LAPIHKLEEALYQYQPLQIETYGP [E13Q], LAPIHKLEEALYRYQPLQIETYGP [E13R] is higher in protein stability index: 1.43 for the first, 1.8 for the second.

Compared with LAPIHKLEEALYSYQPLQIETYGP [E13S], LAPIHKLEEALYTYQPLQIETYGP [E13T] is higher in protein stability index: 1.58 for the first, 2.14 for the second.

First: LAPIHKLEEALYVYQPLQIETYGP [E13V]
Second: LAPIHKLEEALYWYQPLQIETYGP [E13W]
The protein stability index of the first is lower: 2.04 for the first, 2.08 for the second.

First: LAPIHKLEEALYYYQPLQIETYGP [E13Y]
Second: LAPIHKLEEALYEAQPLQIETYGP [Y14A]
The protein stability index of the first is lower: 1.61 for the first, 3.19 for the second.

Going from LAPIHKLEEALYECQPLQIETYGP [Y14C] to LAPIHKLEEALYEDQPLQIETYGP [Y14D], the protein stability index rises from 2.54 to 4.2.

Going from LAPIHKLEEALYEEQPLQIETYGP [Y14E] to LAPIHKLEEALYEFQPLQIETYGP [Y14F], the protein stability index falls from 3.43 to 2.1.

Compared with LAPIHKLEEALYEGQPLQIETYGP [Y14G], LAPIHKLEEALYEHQPLQIETYGP [Y14H] is lower in protein stability index: 3.45 for the first, 3.32 for the second.

Compared with LAPIHKLEEALYEIQPLQIETYGP [Y14I], LAPIHKLEEALYEKQPLQIETYGP [Y14K] is higher in protein stability index: 2.52 for the first, 3.53 for the second.

Compared with LAPIHKLEEALYELQPLQIETYGP [Y14L], LAPIHKLEEALYEMQPLQIETYGP [Y14M] is higher in protein stability index: 2.1 for the first, 2.42 for the second.

Compared with LAPIHKLEEALYENQPLQIETYGP [Y14N], LAPIHKLEEALYEPQPLQIETYGP [Y14P] is lower in protein stability index: 2.99 for the first, 2.94 for the second.

Compared with LAPIHKLEEALYEQQPLQIETYGP [Y14Q], LAPIHKLEEALYERQPLQIETYGP [Y14R] is higher in protein stability index: 2.87 for the first, 3.59 for the second.

Going from LAPIHKLEEALYESQPLQIETYGP [Y14S] to LAPIHKLEEALYETQPLQIETYGP [Y14T], the protein stability index falls from 3.36 to 3.33.

Compared with LAPIHKLEEALYEVQPLQIETYGP [Y14V], LAPIHKLEEALYEWQPLQIETYGP [Y14W] is lower in protein stability index: 2.75 for the first, 2.28 for the second.

Compared with LAPIHKLEEALYEYAPLQIETYGP [Q15A], LAPIHKLEEALYEYCPLQIETYGP [Q15C] is lower in protein stability index: 2.17 for the first, 1.05 for the second.

Compared with LAPIHKLEEALYEYDPLQIETYGP [Q15D], LAPIHKLEEALYEYEPLQIETYGP [Q15E] is lower in protein stability index: 2.94 for the first, 2.36 for the second.

Compared with LAPIHKLEEALYEYFPLQIETYGP [Q15F], LAPIHKLEEALYEYGPLQIETYGP [Q15G] is higher in protein stability index: 1.17 for the first, 1.52 for the second.
